From patent publication US20060134122A1, “Peptides of syndecan-1 for inhibition of cancer” (priority 2004, published 2006)

Assays:
[1] = system: human microvascular endothelial cells (HMECs); assay: Apoptosis of serum-starved HMEC; format: cell-based; conditions: for cell death / protection from apoptosis, agent alone: VEGF 100 ng/ml, FGF 100 ng/ml, hScd-1ED 30 ug/ml
Description: FIGS. 17A-B—Competition with soluble Sdc-1 ectodomain causes enhanced apoptosis of human microvascular endothelial cells (HMECs) in the presence of FGF. (FIG. 17A) HMEC-1 cells were plated overnight on gelatin, then starved for 24 hr to induce the intrinsic pathway of apoptosis. Apoptotic cells were easily observed by DIC microscopy. Examples of apoptotic cells are denoted by black arrows, living cells by red arrows. Cells were treated with 100 ng/ml VEGF, 100 ng/ml FGF, FGF+30 ug/ml hScd-1ED or hScd-1ED alone. […] (FIG. 17B) Quantification of % protection from apoptosis by each treatment. […] VEGF has no effect on this pathway, as it affects the extrinsic pathway of apoptosis which is not induced by serum starvation.
Finally, the inventors performed used human microvascular endothelial cells (HMECs), which also express Sdc-1, as well as the αvβ3 and αvβ5 integrins, to test the theory that endothelial cells undergoing angiogenesis in response to fibroblast growth factor, a common angiogenic agent, will enter apoptosis and die unless the FGF signal is accompanied by a coordinate signal from the αvβ3 integrin. The inventors hypothesis was that recombinant ectodomain of Sdc-1 would block the signal from the αvβ3 integrin and induce apoptosis in the presence of FGF. HMEC cells grown in low serum conditions spontaneously enter apoptosis. […] In fact, treatment with FGF together with the soluble ectodomain protein induced apoptosis beyond that of the low serum condition alone (FIGS. 17A-B).

[2] = system: B82L fibroblasts; assay: B82L cell attachment and spreading; format: cell-based, mouse
From the text: FIGS. 11A-F—Downregulation of mouse Sdc-1 expression by siRNA blocks αvβ5-dependent cell attachment and spreading on VN. FACS analysis for (FIG. 11A) mouse syndecan-1 (mAb 281.2), (FIG. 11B) αv integrin subunit (mAb H9.2B8), (FIG. 11C) mouse Syndecan-4 (mAb KY8.2), (FIG. 11D) human syndecan-1 (mAb B-B4) and (FIG. 11E) FcR^ecto-hS1 chimera (FITC-conjugated hIgG) expression against isotype IgG controls (red-fill) in vector^NEO (FIGS. 11A-C), human syndecan-1 (FIG. 11D) and FcR^ecto-hS1 (FIG. 11E) expressing B82L cells 48 h after transfection with either 600 nM control (Control) or mouse syndecan-1-specific siRNA (siRNA). (FIG. 11F) B82L^NEO empty vector-transfected control cells and B82L cells expressing human syndecan-1 or the FcR^ecto-hS1 chimera were transfected with control or mouse syndecan-1-specific siRNA and seeded on wells coated with either 5 μg/mL VN alone or a mixed substratum of VN plus 60 μg/mL of antibody directed against mouse syndecan-1 (281.2), human syndecan-1 (B-B4) or the FcR^ecto-hS1 chimera (hIgG). Cells were incubated at 37° C. for 2 h, fixed, and stained with rhodamine-conjugated phalloidin.
FIGS. 12A-B—B82L cell spreading on VN is blocked by recombinant Scd-1ED. (FIG. 12A) B82L fibroblasts were plated on 5 μg/mL VN in the absence of other treatment, or in the presence of 30 μM GST, 1-30 μM GST-mS1ED or 30 μM GST-mS4ED (inset), then fixed and stained with rhodamine-phalloidin for visualization. (FIG. 12B) Quantification of cell adhesion in triplicate samples (±S.E.) plated either with no additions, or concentrations of GST-mS1ED ranging from 0-30 μM. […]
The failure of NEO cells to engage the mixed substratum is indicative of the efficient blockade of mouse Sdc-1 expression by the siRNA. It is unlikely that the mouse Sdc-1-siRNA treatment has any non-specific cellular effects since spreading on VN is specifically rescued by the expression of full-length human Sdc-1 (hS1, FIG. 11F). Spreading of the B82L-hS1 cells is indistinguishable from parental cells. However, spreading on VN is not recovered in cells expressing the FcR^ecto-hS1 chimera—a construct in which the syndecan's ectodomain is replaced by the ectodomain of the human Fcγ receptor Ia (FcR^ecto-hS1)—regardless of whether the cells are plated on VN alone, or VN supplemented with 60 μg/mL of hIgG to engage the FcR^ecto-hS1 construct.
Recombinant Sdc-1 ectodomain competitively blocks αvβ5 integin activity. To test whether soluble Sdc-1 ectodomain will compete with the syndecan activation of the αvβ5 integrin, B82L cells were plated on 5 μg/mL VN in the presence of a recombinant GST fusion protein containing either the ectodomain of mouse Sdc-1 (GST-mS1ED) or human Sdc-1 (GST-hS1ED; data not shown).

[3] = system: mouse aortic endothelial cells; assay: Mouse aortic endothelial cell spreading on VN; format: cell-based
From the text: Secondly, they targeted Sdc-1 expression cells using siRNA.

With VEGF [reference compound] the “cell death / protection from apoptosis, agent alone” value ([1]; starved 24 hr) was “no effect”.

B1: GST-hS1ED: recombinant GST fusion protein containing the ectodomain of human Sdc-1 (protein)
chain: QIVATNLPPEDQDGSGDDSDNFSGSGAGALQDITLSQQTPSTWKDTQLLTAIPTSPEPTGLEATAASTSTLPAGEGPKEGEAVVLPEVEPGLTAREQEATPRPRETTQLPTTHQASTTTATTAQEPATSHPHRDMQPGHHETSTPAGPSQADLHTPHTEDGGPSATERAAEDGASSQLPAAEGSGEQDFTFETSGENTAVVAVEPDRRNQSPVDQGATGASQGLLDRKEVLG
modifications: left off: a dimerising Fc or GST
For B1, the “cell attachment and spreading on VN” value ([2]; 5 μg/mL VN, S1ED 1-30 μM, GST and GST-mS4ED 30 μM) was “increasing blockade” and the “lowest concentration tested at which competition occurs” value ([2]; cells plated on 5 μg/mL VN) was 1 µM.

B2: hScd-1ED: soluble human Sdc-1 ectodomain used as competitor on HMEC cells (protein, UniProt P18827 23-254, looked up)
extracellular domain: QIVATNLPPEDQDGSGDDSDNFSGSGAGALQDITLSQQTPSTWKDTQLLTAIPTSPEPTGLEATAASTSTLPAGEGPKEGEAVVLPEVEPGLTAREQEATPRPRETTQLPTTHLASTTTATTAQEPATSHPHRDMQPGHHETSTPAGPSQADLHTPHTEDGGPSATERAAEDGASSQLPAAEGSGEQDFTFETSGENTAVVAVEPDRRNQSPVDQGATGASQGLLDRKEVLG
modifications: extracellular domain
With B2 the “cell death in 15% serum” value ([1]; control cells in 15% serum, not shown) was “no effect”, the “apoptosis in the presence of FGF” value ([1]; starved 24 hr, 100 ng/ml FGF + 30 ug/ml hScd-1ED) was “dramatically increases apoptosis” and the “cell death / protection from apoptosis, agent alone” value ([1]; starved 24 hr) was “protective effect”.

B3: Sdc-1 ectodomain: recombinant Sdc-1 ectodomain competitor; species and fusion not stated at this place (protein)
chain: QIVATNLPPEDQDGSGDDSDNFSGSGAGALQDITLSQQTPSTWKDTQLLTAIPTSPEPTGLEATAASTSTLPAGEGPKEGEAVVLPEVEPGLTAREQEATPRPRETTQLPTTHQASTTTATTAQEPATSHPHRDMQPGHHETSTPAGPSQADLHTPHTEDGGPSATERAAEDGASSQLPAAEGSGEQDFTFETSGENTAVVAVEPDRRNQSPVDQGATGASQGLLDRKEVLG
B3 was tested, and the “competitor concentration at which spreading on VN is blocked” value [3] was 1 µM.
